The source of these data is the supplement of paper PMC7877785.

The nature of this series: self-splicing fitness, log relative to wild type (ln ratio); higher = more splicing; Tetrahymena group I intron in knt gene, E. coli kanamycin selection, DiMSum; sequences stand for … in CUCUCU…GGAGGGAAAAGUUAUCAGGCAUGCACCUGGUAGCUAGUCUUUAAACCAAUAGAUUGCAUCGGUUUAAAAGGCAAGACCGUCAAAUUGCGGGAAAGGGGUCAACAGCCGUUCAGUACCAAGUCUCAGGGGAAACUUUGAGAUGGCCUUGCAAAGGGUAUGGUAAUAAGCUGACGGACAUGGUCCUAACCACGCAGCCAAGUCCUAAGUCAACAGAUCUUCUGUUGAUAUGGAUGCAGUUCACAGACUAAAUGUCGGUCGGGGAAGAUGUAUUCUUCUCAUAAGAUAUAGUCGGACCUCUCCUUAAUGGGAGCUAGCGGAUGAAGUGAUGCAACACUGGAGCCGCUGGGAACUAAUUUGUAUGCGAAAGUAUAUUGAUUAGUUUUGGAGUACUCGUGGUCG
In a few lines:
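DiMSum derived fitness as the error-weighted combination of fold changes across replicates, kanamycin versus no kanamycin, normalised to wild type. E. coli BL21(DE3) held the library, which randomised all eight P1ex-region intron nucleotides within the knt kanamycin-resistance gene on pET-22b(+). Six replicate transformations grew overnight at 37°C or 30°C on LB agar with or without 25 μg/mL kanamycin, also containing 100 μg/mL carbenicillin, 50 μM IPTG and 0.2% rhamnose, and pooled colonies were amplicon-sequenced on an Illumina HiSeq 2500.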

± gives the uncertainty stated by the source.

On to AUGUAGCAAUAUUACGCUGA, for which the “self-splicing fitness (ln)” value (30 °C) was -1.93 ± 0.15 and the “self-splicing fitness (ln)” value (37 °C) was -1.29 ± 0.18.
On the same counts, the results for GAUCAGCAAUAUUACGAUAA are 0.273 ± 0.069 and 0.106 ± 0.076.
As to GCCCAGCAAUAUUACGUGGC, the “self-splicing fitness (ln)” value is -3.51 ± 0.22 (30 °C) and -1.39 ± 0.19 (37 °C).
Regarding GAACAGCAAUAUUACGACAG, the “self-splicing fitness (ln)” value reads like this: (30 °C) -3.37 ± 0.18; (37 °C) -2.55 ± 0.17.
Take AGCUAGCAAUAUUACGUGGC: the “self-splicing fitness (ln)” value (37 °C) is -2.27 ± 0.26.
Regarding ACACAGCAAUAUUACGAAUU, the “self-splicing fitness (ln)” value is -3.01 ± 0.084 (30 °C) and -2.02 ± 0.1 (37 °C).
On the same counts, the results for ACACAGCAAUAUUACGGUAU are -2.59 ± 0.088 and -1.59 ± 0.092.
On the same counts, the results for AGCGAGCAAUAUUACGCAAG are -3.18 ± 0.4 and -2.43 ± 0.45.
With CUGGAGCAAUAUUACGAUAU, the “self-splicing fitness (ln)” value runs as follows: (30 °C) -2.36 ± 0.35; (37 °C) -2.54 ± 0.41.
On the same counts, the results for CAUCAGCAAUAUUACGUUGC are -3.81 ± 0.27 and -2.84 ± 0.2.
Take ACAAAGCAAUAUUACGUCCG: the “self-splicing fitness (ln)” value (30 °C) was -0.802 ± 0.049 and the “self-splicing fitness (ln)” value (37 °C) is -0.466 ± 0.063.
On the same counts, the results for UUUAAGCAAUAUUACGUUAU are -3.18 ± 0.2 and -2.16 ± 0.22.
On the same counts, the results for UGCGAGCAAUAUUACGGCGG are -1.21 ± 0.084 and -0.816 ± 0.13.
For the sequence UGAUAGCAAUAUUACGCUCG, the “self-splicing fitness (ln)” value runs as follows: (30 °C) -0.235 ± 0.13; (37 °C) 0.0592 ± 0.21.
On to GUCUAGCAAUAUUACGUAGA, for which the “self-splicing fitness (ln)” value is, setting by setting: (30 °C) -1.69 ± 0.14; (37 °C) -0.93 ± 0.2.
As for GACGAGCAAUAUUACGUGUU, the “self-splicing fitness (ln)” value is -3.18 ± 0.16 (30 °C) and -3.09 ± 0.19 (37 °C).
Consider CAGUAGCAAUAUUACGAGAA, for which the “self-splicing fitness (ln)” value (37 °C) is -3.36 ± 0.46.
Consider CUACAGCAAUAUUACGCCGU, for which the “self-splicing fitness (ln)” value is, setting by setting: (30 °C) -3.2 ± 0.19; (37 °C) -2.06 ± 0.29.
On the same counts, the results for GCACAGCAAUAUUACGUAUU are -1 ± 0.047 and -0.335 ± 0.057.
As to AAGUAGCAAUAUUACGCGAC, the “self-splicing fitness (ln)” value (30 °C) is -3.11 ± 0.31 and the “self-splicing fitness (ln)” value (37 °C) is -1.7 ± 0.36.
As for CACCAGCAAUAUUACGUCCA, the “self-splicing fitness (ln)” value was -3.43 ± 0.26 (30 °C) and -2.26 ± 0.2 (37 °C).
In the case of UGACAGCAAUAUUACGGCCC, the “self-splicing fitness (ln)” value is -0.701 ± 0.12 (30 °C) and -0.967 ± 0.18 (37 °C).
Regarding CCGGAGCAAUAUUACGAUUG, the “self-splicing fitness (ln)” value reads like this: (30 °C) -0.529 ± 0.094; (37 °C) 0.132 ± 0.14.
For the sequence UUCGAGCAAUAUUACGUGCG, the “self-splicing fitness (ln)” value (30 °C) was -3.18 ± 0.23 and the “self-splicing fitness (ln)” value (37 °C) is -2.18 ± 0.26.
With UUUCAGCAAUAUUACGACGC, the “self-splicing fitness (ln)” value (30 °C) is -2.68 ± 0.24 and the “self-splicing fitness (ln)” value (37 °C) was -1.67 ± 0.19.
For UGUGAGCAAUAUUACGCGUU the same measures were -2.62 ± 0.2 and -1.89 ± 0.25.
In the case of UCCGAGCAAUAUUACGAUGC, the “self-splicing fitness (ln)” value (30 °C) was -1.93 ± 0.19.
For AGGUAGCAAUAUUACGGGCA, the “self-splicing fitness (ln)” value is, setting by setting: (30 °C) -0.941 ± 0.017; (37 °C) -0.414 ± 0.034.
Take UUUUAGCAAUAUUACGCGAC: where the note is “30 °C”, the “self-splicing fitness (ln)” value was -2.52 ± 0.34.
Regarding CUGGAGCAAUAUUACGCGUC, the “self-splicing fitness (ln)” value reads like this: (30 °C) -3.41 ± 0.27; (37 °C) -1.76 ± 0.27.
On the same counts, the results for CUGCAGCAAUAUUACGGCUU are -4.37 ± 0.36 and -2.23 ± 0.28.
For CGCUAGCAAUAUUACGCGUG the same measures were -2.8 ± 0.13 and -1.77 ± 0.12.
UCUAAGCAAUAUUACGACCU: the “self-splicing fitness (ln)” value by setting is: (30 °C) -3.7 ± 0.35; (37 °C) -1.92 ± 0.24.
As to UCCUAGCAAUAUUACGGAUU, the “self-splicing fitness (ln)” value by setting is: (30 °C) -4.22 ± 0.23; (37 °C) -2.36 ± 0.21.
For GUUUAGCAAUAUUACGAGCG the same measures were -1.6 ± 0.12 and -0.465 ± 0.12.
On the same counts, the results for UCAGAGCAAUAUUACGUUUU are -3.84 ± 0.26 and -3.13 ± 0.26.
For ACCCAGCAAUAUUACGCAGA the same measures were -1.02 ± 0.068 and -0.231 ± 0.072.
UGUUAGCAAUAUUACGUGAA: the “self-splicing fitness (ln)” value is -2.38 ± 0.16 (30 °C) and -1.07 ± 0.13 (37 °C).
For GGCCAGCAAUAUUACGGAGU the same measures were -0.585 ± 0.063 and -0.166 ± 0.084.
On the same counts, the results for GUUGAGCAAUAUUACGCGAG are -1.35 ± 0.18 and -0.457 ± 0.17.
Take UGUUAGCAAUAUUACGAGGC: the “self-splicing fitness (ln)” value by setting is: (30 °C) -3.73 ± 0.43; (37 °C) -2.67 ± 0.38.
For AUACAGCAAUAUUACGCAAU the same measures were -1.93 ± 0.15 and -1.02 ± 0.16.
For AAGCAGCAAUAUUACGCCAC the same measures were -2.93 ± 0.22 and -2.72 ± 0.29.
As to CCGGAGCAAUAUUACGUACU, the “self-splicing fitness (ln)” value is -4.13 ± 0.44 (30 °C) and -3.36 ± 0.42 (37 °C).
As for UUAAAGCAAUAUUACGUGUG, the “self-splicing fitness (ln)” value by setting is: (30 °C) -0.972 ± 0.045; (37 °C) -0.4 ± 0.06.
Regarding AGUAAGCAAUAUUACGCGAU, the “self-splicing fitness (ln)” value was -3.74 ± 0.18 (30 °C) and -2.29 ± 0.18 (37 °C).
Take UUGCAGCAAUAUUACGUUUC: the “self-splicing fitness (ln)” value (30 °C) was -3.59 ± 0.27 and the “self-splicing fitness (ln)” value (37 °C) is -3.17 ± 0.34.
UCAUAGCAAUAUUACGAUUA: the “self-splicing fitness (ln)” value by setting is: (30 °C) -0.984 ± 0.17; (37 °C) -0.81 ± 0.25.
For AAGAAGCAAUAUUACGCUGG the same measures were -2.37 ± 0.2 and -0.515 ± 0.2.
For the sequence GACUAGCAAUAUUACGUUGC, the “self-splicing fitness (ln)” value reads like this: (30 °C) -2.56 ± 0.12; (37 °C) -2.5 ± 0.2.
For CCCGAGCAAUAUUACGAUUC the same measures were -4.01 ± 0.3 and -2.13 ± 0.18.
Take AAGAAGCAAUAUUACGGCGU: the “self-splicing fitness (ln)” value (30 °C) is 0.0118 ± 0.086 and the “self-splicing fitness (ln)” value (37 °C) worked out at 0.334 ± 0.11.
With UCGCAGCAAUAUUACGGCAG, the “self-splicing fitness (ln)” value is, setting by setting: (30 °C) -0.619 ± 0.1; (37 °C) -0.379 ± 0.11.
Regarding AGUCAGCAAUAUUACGCGUC, the “self-splicing fitness (ln)” value (30 °C) is -2.65 ± 0.23 and the “self-splicing fitness (ln)” value (37 °C) is -0.977 ± 0.23.
Turning to AAACAGCAAUAUUACGCAAA, the “self-splicing fitness (ln)” value by setting is: (30 °C) -2.87 ± 0.12; (37 °C) -1.75 ± 0.1.
Take UCACAGCAAUAUUACGUUAG: the “self-splicing fitness (ln)” value is -2.17 ± 0.077 (30 °C) and -1.49 ± 0.088 (37 °C).
For GUGAAGCAAUAUUACGCUUC, the “self-splicing fitness (ln)” value reads like this: (30 °C) -4.23 ± 0.32; (37 °C) -2.41 ± 0.3.
Regarding CGGCAGCAAUAUUACGGAAA, the “self-splicing fitness (ln)” value (30 °C) is -3.57 ± 0.26 and the “self-splicing fitness (ln)” value (37 °C) is -2.7 ± 0.18.
As to GUGUAGCAAUAUUACGUUCA, the “self-splicing fitness (ln)” value was -0.405 ± 0.14 (30 °C) and -0.597 ± 0.13 (37 °C).
In the case of GUCUAGCAAUAUUACGUCCU, the “self-splicing fitness (ln)” value by setting is: (30 °C) -0.102 ± 0.16; (37 °C) -0.136 ± 0.14.
On the same counts, the results for AGUUAGCAAUAUUACGGCCA are -0.965 ± 0.16 and 0.403 ± 0.29.
On the same counts, the results for ACCAAGCAAUAUUACGUCCG are -1.19 ± 0.072 and -1.19 ± 0.11.
For UACGAGCAAUAUUACGGAAU, the “self-splicing fitness (ln)” value is -2.71 ± 0.27 (30 °C) and -2.76 ± 0.34 (37 °C).
As to UACAAGCAAUAUUACGACCC, the “self-splicing fitness (ln)” value (30 °C) was -2.31 ± 0.46.
Consider UAAAAGCAAUAUUACGUGGU, for which the “self-splicing fitness (ln)” value is -3.53 ± 0.13 (30 °C) and -2.28 ± 0.14 (37 °C).
CGCGAGCAAUAUUACGUACA: the “self-splicing fitness (ln)” value (37 °C) is -2.71 ± 0.43.
CGGCAGCAAUAUUACGUUAU: the “self-splicing fitness (ln)” value was -2.5 ± 0.17 (30 °C) and -2.56 ± 0.21 (37 °C).
Turning to CAGCAGCAAUAUUACGAAUC, the “self-splicing fitness (ln)” value (30 °C) is -2.38 ± 0.27 and the “self-splicing fitness (ln)” value (37 °C) is -2.33 ± 0.4.
For the sequence AACCAGCAAUAUUACGCUUU, the “self-splicing fitness (ln)” value reads like this: (30 °C) -1.42 ± 0.084; (37 °C) -1.05 ± 0.09.
On the same counts, the results for GGGGAGCAAUAUUACGAACU are -2.75 ± 0.31 and -1.76 ± 0.27.
For AUUAAGCAAUAUUACGGGAU the same measures were -2.07 ± 0.15 and -0.652 ± 0.12.
Regarding ACGUAGCAAUAUUACGAACA, the “self-splicing fitness (ln)” value (30 °C) was -1.56 ± 0.24 and the “self-splicing fitness (ln)” value (37 °C) was -0.252 ± 0.2.
As to AAUGAGCAAUAUUACGGAAC, the “self-splicing fitness (ln)” value (30 °C) is -3.52 ± 0.47.
In the case of UGUGAGCAAUAUUACGUGUC, under “37 °C”, the “self-splicing fitness (ln)” value was -1.75 ± 0.28.
As to CUGCAGCAAUAUUACGAACG, the “self-splicing fitness (ln)” value runs as follows: (30 °C) 0.237 ± 0.087; (37 °C) -0.269 ± 0.08.
As for CCAUAGCAAUAUUACGCACU, the “self-splicing fitness (ln)” value was -3.41 ± 0.4 (30 °C) and -3.05 ± 0.34 (37 °C).
For ACAAAGCAAUAUUACGUAGA the same measures were -3.68 ± 0.16 and -1.66 ± 0.15.
